Paper PMC3871271 (FEBS Open Bio, 2013)
Like-named read-outs stand apart in the source and are kept apart here.

How the values were obtained:
Assay in all cases: ITC
[1] = molecular target: T1, C-terminal domain of Scherffelia dubia centrin, wild type (Scherffelia dubia, UniProt Q06827 93-168)
T1 sequence (looked up): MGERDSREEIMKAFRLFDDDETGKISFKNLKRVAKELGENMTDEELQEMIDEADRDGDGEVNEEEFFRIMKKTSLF

[2] = molecular target: T1, C-terminal domain of Scherffelia dubia …; remark: listed apart in the source
[3] = molecular target: T1, C-terminal domain of Scherffelia dubia …; remark: listed apart in the source
[4] = molecular target: T1, C-terminal domain of Scherffelia dubia …; remark: listed apart in the source

- Ka [1]: 3.02e+07 M⁻¹
- dH [1]: -33.8 kcal/mol
- Ka [2]: 7.32e+07 M⁻¹
- dH [2]: -23.4 kcal/mol
- dH [3]: -40.6 kcal/mol
- Ka [4]: 5.94e+07 M⁻¹
- dH [4]: -23.4 kcal/mol
Binder: Ac-NWKLLAKGLLIRERLKR-NH2 [P17-XPC peptide]
